Data taken from EP3418296A1.

Assays:
[1] = biological target: native Sclerotium rolfsii lectin (SRL) (Sclerotium rolfsii); assay: inhibition by mucin of native lectin binding to PA-1 cells
[2] = biological target: native Sclerotium rolfsii lectin (SRL) (Sclerotium rolfsii); assay: inhibition by mucin of native lectin binding to Molt 4 cells
[3] = biological target: native Sclerotium rolfsii lectin (SRL) (Sclerotium rolfsii); assay: inhibition by mucin of native lectin binding to COLO 205 cells
[4] = biological target: native Sclerotium rolfsii lectin (SRL) (Sclerotium rolfsii); assay: inhibition by mucin of native lectin binding to Jurkat cells
[5] = biological target: COLO 205 cultured colon cells (unnamed cell surface lectin receptors); assay: lectin binding to cultured COLO 205 cells, lectin alone (method not described)
[6] = biological target: PA-1 cultured ovarian cells (unnamed cell surface lectin receptors); assay: lectin binding to cultured PA-1 cells, lectin alone (method not described)
[7] = biological target: Jurkat cultured leukemic cells (unnamed cell surface lectin receptors); assay: lectin binding to cultured Jurkat cells, lectin alone (method not described)
[8] = biological target: Molt 4 cultured leukemic cells (unnamed cell surface lectin receptors); assay: lectin binding to cultured Molt 4 cells, lectin alone (method not described)

Substance	% positive cells (lectin + mucin) [1]	% positive cells (lectin + mucin) [2]	% positive cells (lectin + mucin) [3]	% positive cells (lectin + mucin) [4]	% positive cells [5]	% positive cells [6]	% positive cells [7]	% positive cells [8]
mucin	1.63%	0.24%	0.99%	0.5%	–	–	–	–
native Sclerotium rolfsii lectin (SRL)	–	–	–	–	91.7%	96.7%	33.8%	88.5%
